Test results as given in patent publication US8569455B2, “Cloning, yeast expression, purification and biological activity of the extension region of the soybean 7S globulin alfa' subunit involved in HEP G2 cell cholesterol homeostasis” (Indena S.p.A., priority 2009, dated 2013).
Marks after values point to notes of the source that are not given here.

Columns and labels:
HepG2 cells [1] = test: Uptake and degradation of 125I-LDL by HepG2 cells; format: cell-based, human; settings: for Degradation % / Uptake %: % of LPDS control (100); for Degradation ng125I-LDL/mg cell protein / Uptake ng125I-LDL/mg cell protein: HepG2, 24 h preincubation in 5% LPDS, then 125I-LDL 7.5 mg/L for 5 h, mean ± SD
Description: The established human hepatoma cell line (HepG2) was obtained from American Type Culture Collection (Rockville, Md.). Eagle's minimum essential medium (MEM), fetal calf serum, trypsin-EDTA (1×), penicillin (10^5 U/L), streptomycin (100 g/L), tricine buffer (1 mmol/L, pH 7.4) and non-essential amino acid solutions (100×) were from GIBCO (Madison, Wis.). Petri dishes were from COSTAR (Cambridge, Mass.). Filters were from Millipore (Bedford, Mass.). […] Sephadex G25 columns (PD10) were from Pharmacia Biotech (Uppsala, Sweden). LDH and MTT kit were from Sigma Diagnostics (Milano-Italy). All other chemicals were of analytical grade from Merck (Darmstadt, Germany). […] For experiments designed to evaluate the LDL receptor modulation, cells were seeded in 35 mm plastic dishes (3-5×10^5 cells) and used just before reaching confluence. In all cell culture experiments, the medium was changed every 2-3 days. In order to assess cell viability, culture media from cells exposed to eα′ at different concentrations were tested by methyltetrazolium salts (MTT) assay, essentially as described in ref. 9. Cell enzyme leakage was determined by measuring lactate dehydrogenase (LDH) activity, using a kinetic (LDH/LD) diagnostic kit (Sigma Diagnostics). […] Human lipoprotein deficient serum (LPDS) was prepared as previously described.
Monolayers of cells were preincubated at 37° C. for 24 h in MEM supplemented with 5 g/100 g LPDS to up-regulate the LDL-receptors, in the presence/absence of eα′ at different concentrations listed in Table or 3.5 μmol/L α′ purified subunit or 1.0 μmol/L simvastatin.
Differences in cell uptake and degradation of LDL after cell incubation with eα′ at different concentrations were determined by ANOVA followed by Dunnett's test. Values are expressed as means±SD; P values<0.05 were considered as statistically significant.

LDL-R = settings: Hep G2 cells exposed to the peptide at 100 μM; cited from earlier work
HepG2 cells [2] = test: Cell viability by methyltetrazolium salts (MTT) assay; format: cell-based, human; settings: all concentrations tested; data not shown
Description: (§1) The established human hepatoma cell line (HepG2) was obtained from American Type Culture Collection (Rockville, Md.). Eagle's minimum essential medium (MEM), fetal calf serum, trypsin-EDTA (1×), penicillin (10^5 U/L), streptomycin (100 g/L), tricine buffer (1 mmol/L, pH 7.4) and non-essential amino acid solutions (100×) were from GIBCO (Madison, Wis.). Petri dishes were from COSTAR (Cambridge, Mass.). Filters were from Millipore (Bedford, Mass.). The Protein Coomassie Plus Protein Assay kit was purchased from Pierce (Rockford, Ill., USA). ^125Iodine, carrier free, in 100 mmol/L NaOH, was from Perkin Elmer Life Sciences (Boston, Mass.). Sephadex G25 columns (PD10) were from Pharmacia Biotech (Uppsala, Sweden). LDH and MTT kit were from Sigma Diagnostics (Milano-Italy). All other chemicals were of analytical grade from Merck (Darmstadt, Germany). Cells were grown in monolayers in 90 mm-diameter Petri dishes, and maintained at 37° C. in a humidified atmosphere of 95% air, 5% CO2 in MEM supplemented with 10% fetal calf serum (FCS), non essential amino acid solution (1%, v/v), penicillin (10^5 U/L), streptomycin (0.1 g/L), tricine buffer (20 mmol/L, pH 7.4), NaHCO3 (24 mmol/L) and sodium pyruvate (0.11 g/L). […] Cell enzyme leakage was determined by measuring lactate dehydrogenase (LDH) activity, using a kinetic (LDH/LD) diagnostic kit (Sigma Diagnostics). […]

HepG2 cells [3] = test: Cell enzyme leakage, lactate dehydrogenase (LDH) activity; format: cell-based, human; settings: all concentrations tested; data not shown
Description: as §1

Molecule: CCC(C)(C)C(=O)O[C@H]1C[C@@H](C)C=C2C=C[C@H](C)[C@H](CC[C@@H]3C[C@@H](O)CC(=O)O3)[C@H]21 [Simvastatin, simvastatin, reference compound]
- Degradation % (HepG2 cells [1]; 1.0 μmol/L): 179%
- Uptake % (HepG2 cells [1]; 1.0 μmol/L): 200%
- Degradation ng125I-LDL/mg cell protein (HepG2 cells [1]; 1.0 μmol/L): 143 ± 7.9** ng^125 I-LDL/mg cell protein
- Uptake ng125I-LDL/mg cell protein (HepG2 cells [1]; 1.0 μmol/L): 188 ± 10** ng^125 I-LDL/mg cell protein

Molecule: FVVNATSN (Glycine max) [LDL-R transcription stimulating peptide deriving from the 7S globulin β chain]
- Increased LDL-R transcription (LDL-R): +148%

B1: 7S α′ subunit: purified full size α′ subunit of the soybean 7S globulin, around 71 kDa, positive control (protein)
chain: VEEEEECEEGQIPRPRPQHPERERQQHGEKEEDEGEQPRPFPFPRPRQPHQEEEHEQKEEHEWHRKEEKHGGKGSEEEQDEREHPRPHQPHQKEEEKHEWQHKQEKHQGKESEEEEEDQDEDEEQDKESQESEGSESQREPRRHKNKNPFHFNSKRFQTLFKNQYGHVRVLQRFNKRSQQLQNLRDYRILEFNSKPNTLLLPHHADADYLIVILNGTAILTLVNNDDRDSYNLQSGDALRVPAGTTFYVVNPDNDENLRMIAGTTFYVVNPDNDENLRMITLAIPVNKPGRFESFFLSSTQAQQSYLQGFSKNILEASYDTKFEEINKVLFGREEGQQQGEERLQESVIVEISKKQIRELSKHAKSSSRKTISSEDKPFNLGSRDPIYSNKLGKLFEITQRNPQLRDLDVFLSVVDMNEGALFLPHFNSKAIVVLVINEGEANIELVGIKEQQQRQQQEEQPLEVRKYRAELSEQDIFVIPAGYPVMVNATSDLNFFAFGINAENNQRNFLAGSKDNVISQIPSQVQELAFPRSAKDIENLIKSQSESYFVDAQPQQKEEGNKGRKGPLSSILRAFY
modifications: Glycine max
notes: purified full size α′ subunit of the soybean 7S globulin, around 71 kDa, positive control
- Degradation % (HepG2 cells [1]; 3.5 μmol/L): 160%
- Uptake % (HepG2 cells [1]; 3.5 μmol/L): 164%
- Degradation ng125I-LDL/mg cell protein (HepG2 cells [1]; 3.5 μmol/L): 128 ± 4.8* ng^125 I-LDL/mg cell protein
- Uptake ng125I-LDL/mg cell protein (HepG2 cells [1]; 3.5 μmol/L): 154 ± 9.1* ng^125 I-LDL/mg cell protein

B2: eα′: recombinant N-terminal extension region of the soybean 7S globulin α′ subunit, expressed in Pichia pastoris, about 20 kDa, SEQ ID NO: 1 (protein)
chain: AVEEEEECEEGQIPRPRPQHPERERQQHGEKEEDEGEQPRPFPFPRPRQPHQEEEHEQKEEHEWHRKEEKHGGKGSEEEQDEREHPRPHQPHQKEEEKHEWQHKQEKHQGKESEEEEEDQDEDEEQDKESQESEGSESQREP
modifications: Glycine max
- Cellular toxicity, MTT assay (HepG2 cells [2]): At no concentration of eα′ was there any evidence of cellular toxicity
- Cellular toxicity, LDH assay (HepG2 cells [3]): At no concentration of eα′ was there any evidence of cellular toxicity
- Degradation % (HepG2 cells [1]; 0.5 μmol/L): 125%
- Uptake % (HepG2 cells [1]; 0.5 μmol/L): 120%
- Degradation ng125I-LDL/mg cell protein (HepG2 cells [1]; 0.5 μmol/L): 100 ± 10* ng^125 I-LDL/mg cell protein
- Uptake ng125I-LDL/mg cell protein (HepG2 cells [1]; 0.5 μmol/L): 113 ± 7.1* ng^125 I-LDL/mg cell protein
- Degradation % (HepG2 cells [1]; 1.0 μmol/L): 148%
- Uptake % (HepG2 cells [1]; 1.0 μmol/L): 146%
- Degradation ng125I-LDL/mg cell protein (HepG2 cells [1]; 1.0 μmol/L): 118 ± 9.3* ng^125 I-LDL/mg cell protein
- Uptake ng125I-LDL/mg cell protein (HepG2 cells [1]; 1.0 μmol/L): 138 ± 9.2* ng^125 I-LDL/mg cell protein
- Degradation % (HepG2 cells [1]; 2.0 μmol/L): 196%
- Uptake % (HepG2 cells [1]; 2.0 μmol/L): 179%
- Degradation ng125I-LDL/mg cell protein (HepG2 cells [1]; 2.0 μmol/L): 157 ± 8.7** ng^125 I-LDL/mg cell protein
- Uptake ng125I-LDL/mg cell protein (HepG2 cells [1]; 2.0 μmol/L): 169 ± 6.7** ng^125 I-LDL/mg cell protein
